Data as given in patent US6077666.

What was measured:
[1] = molecular target: somatostatin receptors in GH4 C1 cells; experiment: radioligand filtration binding on crude GH4 C1 membranes, antisense-treated against vehicle and sense-treated cells
[2] = molecular target: somatostatin receptors in GH4 C1 cells; experiment: radioligand filtration binding on crude GH4 C1 membranes, sense oligo treated cells
[3] = molecular target: somatostatin receptors in GH4 C1 cells; experiment: radioligand filtration binding on crude GH4 C1 membranes, vehicle-treated cells
[4] = molecular target: somatostatin receptors in GH4 C1 cells; experiment: radioligand filtration binding on crude GH4 C1 membranes, cells treated with antisense oligo for 24 hours

## [125I]tyr-somatostatin, S-14 (from UniProt P61278) (peptide)
[1]
  decline in [125I]tyr-somatostatin binding after antisense treatment: 60%
[2]
  [125I]tyr-somatostatin binding (fmol/mg), sense oligo treated cells: 350 fmol/mg
[3]
  [125I]tyr-somatostatin binding (fmol/mg), vehicle-treated cells: 408 fmol/mg
[4]
  [125I]tyr-somatostatin binding, antisense oligo treated cells: 166 fmol/mg
